Test results from article PMC11909135, “Raptin, a sleep-induced hypothalamic hormone, suppresses appetite and obesity” (Cell Research, 2025).

Target: glutamate metabotropic receptor 3 (GRM3), endogenous (mouse (endogenous in GT1-7 neurons and …, UniProt Q9QYS2 23-879))
Assay: cell-based or functional assay

glutamate metabotropic receptor 3 (GRM3), endogenous (mouse, sequence (Q9QYS2 23-879): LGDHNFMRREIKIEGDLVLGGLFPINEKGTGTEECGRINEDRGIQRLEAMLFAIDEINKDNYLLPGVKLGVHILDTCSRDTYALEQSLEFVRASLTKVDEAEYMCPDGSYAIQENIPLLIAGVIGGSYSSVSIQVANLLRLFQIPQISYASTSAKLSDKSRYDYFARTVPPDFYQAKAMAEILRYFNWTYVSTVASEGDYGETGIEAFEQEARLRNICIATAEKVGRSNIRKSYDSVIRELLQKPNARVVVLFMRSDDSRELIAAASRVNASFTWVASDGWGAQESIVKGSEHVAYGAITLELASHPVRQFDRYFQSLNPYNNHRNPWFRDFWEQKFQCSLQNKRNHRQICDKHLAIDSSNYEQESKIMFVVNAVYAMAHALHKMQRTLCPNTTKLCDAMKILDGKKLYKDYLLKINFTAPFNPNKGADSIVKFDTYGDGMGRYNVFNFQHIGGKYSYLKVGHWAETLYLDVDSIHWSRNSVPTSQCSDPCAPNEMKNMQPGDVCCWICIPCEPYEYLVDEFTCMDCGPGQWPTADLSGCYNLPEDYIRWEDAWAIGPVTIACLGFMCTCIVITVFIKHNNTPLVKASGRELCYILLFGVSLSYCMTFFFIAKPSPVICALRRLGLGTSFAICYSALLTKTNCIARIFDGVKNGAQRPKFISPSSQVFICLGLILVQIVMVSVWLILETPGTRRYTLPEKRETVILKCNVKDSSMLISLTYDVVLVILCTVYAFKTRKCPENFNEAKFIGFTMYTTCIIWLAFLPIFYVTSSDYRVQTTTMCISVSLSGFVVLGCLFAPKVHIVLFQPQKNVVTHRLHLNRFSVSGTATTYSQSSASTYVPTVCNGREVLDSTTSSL

B1: recombinant mouse Raptin protein with a His-tag (ligand)
chain: AEELHYPQGEHRADYDREALLGVQEDVDEYVKLGHEEQQRRLQSIIKKIDSDSDGFLTENELSQWIQMSFKHYAMQEAKQQFVEYDKNSDGAVTWDEYNIQMYDRVIDFDENTALDDTEEGSFRQLHLKDKKRFEKANQDSGPGLSLEEFIAFEHPEEVDYMTEFVIQEALEEHDKNGDGFVSLEEFLGDYRRDPTANEDPEWILVEKDRFVNDYDKDNDGR
  p-AKT accumulation in GT1-7 cells expressing GRM3 (EC50 of Raptin): 0.31 ng/mL
